Test results: article PMC8479633

Legend:
[1] = biological target: wild type full-length SMAD2 (S2FLWT), Q15796; test: SAXS with ensemble optimisation; conditions: remark: other sources report otherwise
[2] = biological target: wild type full-length SMAD2 (S2FLWT), Q15796; test: SAXS with ensemble optimisation; conditions: remark: other sources report otherwise; remark: listed apart in the source

- percent of the population as trimer [1]: 16.4%
- percent of the population as dimer [2]: 18%
- percent of the population as trimer [2]: 1%
B1: wild type full-length SMAD2 (S2FLWT), Q15796 1-467 (natural protein)
chain: MSSILPFTPPVVKRLLGWKKSAGGSGGAGGGEQNGQEEKWCEKAVKSLVKKLKKTGRLDELEKAITTQNCNTKCVTIPSTCSEIWGLSTPNTIDQWDTTGLYSFSEQTRSLDGRLQVSHRKGLPHVIYCRLWRWPDLHSHHELKAIENCEYAFNLKKDEVCVNPYHYQRVETPVLPPVLVPRHTEILTELPPLDDYTHSIPENTNFPAGIEPQSNYIPETPPPGYISEDGETSDQQLNQSMDTGSPAELSPTTLSPVNHSLDLQPVTYSEPAFWCSIAYYELNQRVGETFHASQPSLTVDGFTDPSNSERFCLGLLSNVNRNATVEMTRRHIGRGVRLYYIGGEVFAECLSDSAIFVQSPNCNQRYGWHPATVCKIPPGCNLKIFNNQEFAALLAQSVNQGFEAVYQLTRMCTIRMSFVKGWGAEYRRQTVTSTPCWIELHLNGPLQWLDKVLTQMGSPSVRCSSMS
